Molecular target: T1, 6xHis-NELF-E-mOrange (Drosophila, UniProt P92204 1-280)
T1 sequence: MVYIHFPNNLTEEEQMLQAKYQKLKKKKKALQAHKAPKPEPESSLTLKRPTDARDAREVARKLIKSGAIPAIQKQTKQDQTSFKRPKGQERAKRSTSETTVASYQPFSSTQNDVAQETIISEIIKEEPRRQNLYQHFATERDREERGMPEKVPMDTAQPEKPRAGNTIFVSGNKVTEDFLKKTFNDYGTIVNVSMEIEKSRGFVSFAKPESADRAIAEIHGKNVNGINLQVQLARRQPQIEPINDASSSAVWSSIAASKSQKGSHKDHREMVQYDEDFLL
Test: HiTS-RAP fluorescence

B1: NELFapt A39U_U61A (structured_RNA)
RNA: GGGAAUGGAUCCACAUCUACGAAUUCCCAACGACUGCCGAGCGAGAUUACGCUUGAGCGCCCCUCUGAGGAUGCCCACGGGCGAUAGGGGCACGGCUUCACUGCAGACUUGACGAAGCUU
binding result: binds
